First the molecules themselves.
B1: F010301867 (VHH)
VHH: EVQLVESGGGLVQPGGSLRLSCATTSRQFIRDVFTGWYRRVPGKERELVARIYNGGNTNYADFAKGRFSISRDNAKKMVTLRMSNLKPEDTGVYYCLFSGTINTGREYRSGDYWGQGTLVTVSS
notes: A28Q vs F0103464B09 (Kabat)
B2: F010301892 (VHH)
VHH: B1 VHH with Q28A, V33L
notes: V33L vs F0103464B09 (Kabat); also called F0103464B09(V33L)
B3: F010301891 (VHH)
VHH: B1 VHH with Q28A, T58V
notes: T57V vs F0103464B09 (Kabat)
B4: F010301888 (VHH)
VHH: B1 VHH with S26H, Q28A
notes: S26H vs F0103464B09 (Kabat)
B5: F010301883 (VHH)
VHH: B1 VHH with Q28A, I52V
notes: I51V vs F0103464B09 (Kabat)
B6: F010301887 (VHH)
VHH: B1 VHH with Q28A, R31Q
notes: R31Q vs F0103464B09 (Kabat)
B7: F010301890 (VHH)
VHH: B1 VHH with Q28A, T35V
notes: T35V vs F0103464B09 (Kabat)
B8: F010301884 (VHH)
VHH: B1 VHH with Q28A, N54A
notes: N53A vs F0103464B09 (Kabat)
B9: F010301878 (VHH)
VHH: B1 VHH with Q28A, G55E
notes: G54E vs F0103464B09 (Kabat)
B10: F010301889 (VHH)
VHH: B1 VHH with Q28A, S99A
notes: S95A vs F0103464B09 (Kabat)
B11: F010301886 (VHH)
VHH: B1 VHH with Q28A, N59Q
notes: N58Q vs F0103464B09 (Kabat)
B12: F010301881 (VHH)
VHH: B1 VHH with Q28A, G55W
notes: G54W vs F0103464B09 (Kabat)
B13: F010301880 (VHH)
VHH: B1 VHH with Q28A, G55S
notes: G54S vs F0103464B09 (Kabat)
B14: F010301882 (VHH)
VHH: B1 VHH with Q28A, I30V
notes: I30V vs F0103464B09 (Kabat)
B15: F010301885 (VHH)
VHH: B1 VHH with Q28A, N54E
notes: N53E vs F0103464B09 (Kabat)
B16: F010302345 (VHH)
VHH: EVQLVESGGGVVQPGGSLRLSCAASHRQFIRDVFTGWYRQAPGKQRELVARIYEGGNTQYADSAKGRFTISRDNAKKTVYLQMNSLRPEDTALYYCLFSGTISTGREYRSGDYWGQGTLVTVSS
B17: F010302334 (VHH)
VHH: B16 VHH with H26S, Q40R, E54N, G55E
B18: F010302337 (VHH)
VHH: B16 VHH with Q40R
B19: F010302335 (VHH)
VHH: B16 VHH with H26S, Q40R, G55S
B20: F010302333 (VHH)
VHH: B16 VHH with H26S, Q40R, E54N, G55E, Q59N
B21: F010302336 (VHH)
VHH: B16 VHH with Q40R, E54N, G55E
B22: F010302341 (VHH)
VHH: B16 VHH with H26S, E54N, G55E, Q59N
B23: F010302357 (VHH)
VHH: B16 VHH with H26S, E54N, G55E, Q59N, A64V
B24: F010301870 (VHH)
VHH: EVQLVESGGGVVQPGGSLRLSCATTSRAFIRDVFTGWYRRVPGKERELVARIYNGGNTNYADFAKGRFTISRDNAKKMVYLQMNSLRPEDTALYYCNFSGTINTGREYRSGDYWGQGTLVTVSS
notes: also called F0103464B09(L11V, S68T, T79Y, R81Q, S82aN, N82bS, K83R, G88A, V89L, L93N)
B25: F010302366 (VHH)
VHH: B16 VHH with H26S, Q28A, E54N, Q59N
notes: also called F0103464B09(L11V, T24A, T25S, R39Q, V40A, E44Q, F62S, S68T, M77T, T79Y, R81Q, S82aN, N82bS, K83R, G88A, V89L, N99S)
B26: F010302333 (VHH)
VHH: B16 VHH with H26S, Q40R, E54N, G55E, Q59N
B27: F010302368 (VHH)
VHH: B16 VHH with H26S, Q28A, E54N, Q59N, A64V
notes: also called F0103464B09(L11V, T24A, T25S, R39Q, V40A, E44Q, F62S, A63V, S68T, M77T, T79Y, R81Q, S82aN, N82bS, K83R, G88A, V89L,N99S)
B28: F010302365 (VHH)
VHH: B16 VHH with H26S, Q28A, Q40R, E54N, Q59N
notes: also called F0103464B09(L11V, T24A, T25S, V40A, E44Q, F62S, S68T, M77T, T79Y, R81Q, S82aN, N82bS, K83R, G88A, V89L, N99S)

Substitutions are numbered along the chain they refer to. Names may count otherwise.

The term EC50 denotes the concentration needed to bring the measured effect to its halfway point.

One test addresses T1, huNav1.7α + β1-β2-β3 (human, UniProt Q15858 1-1988; A5A6L6 19-218; O60939 30-215; Q2KI11 23-215).
T1 construct: Cell line (CHO FlpIn, HEK FlpIn, transient HEK293T) is named under assay; also called huNav1.7-beta1-beta2-beta3; human Nav1.7α with Navβ1, Navβ2 and Navβ3
The test can be described thus: binding FACS, CHO FlpIn cells. How it is done: (§1) Binding of the ISVDs to cell-expressed Nav1.7α was detected via murine anti-Flag (Sigma, catalog #F1804). Briefly, cells were resuspended in FACS buffer (PBS, 10% FBS, NaN₃) and transferred to a 96-well V-bottom plate at 1×10^5 cells/well. Purified FLAG3-tagged ISVD was diluted in FACS buffer and added to the cells for 30 minutes at 4° C. […] Prior to the read-out, the samples were resuspended in 1 μg/mL propidium iodide (Sigma, catalog #P4170) to exclude dead cells. Between each step, the cells were centrifuged for 5 minutes at 200 grams and washed with 100 μL/well FACS buffer.
With B1, the EC50 was found to be 4.8 nM.
Consider B2, for which the 50% effective concentration (EC50) turned out to be 4 nM.
Regarding B3, the concentration for a half-maximal effect (EC50) was found to be 4.7 nM.
Regarding B4, the concentration for a half-maximal effect (EC50) worked out at 5.3 nM.
Turning to B5, the EC50 was determined as 4.8 nM.
On the same count and under the same terms, the same measure for B6: 7.5 nM.
Consider B7, for which the EC50 turned out to be 5 nM.
Still for that read-out and setting: the same measure for B8: 6 nM; for B9: 7.1 nM; for B10: 5.4 nM.
As to B11, the EC50 was 4.3 nM.
Turning to B12, the 50% effective concentration (EC50) worked out at 4.2 nM.
Same read-out and setting: as for B13, the figure is 4.9 nM; as for B14, 4.5 nM; as for B15, 8 nM.
Regarding B16, the Bmax turned out to be 100% and the 50% effective concentration (EC50) was 4.9 nM.
For B17 the same measures were 100% and 4 nM.
The corresponding values for B18 are 100% and 3.9 nM.
For B19 the same measures were 100% and 4.1 nM.
As to B20, the Bmax turned out to be 100% and the half-maximal effective concentration (EC50) was 4.1 nM.
For B21 the same measures were 100% and 3.6 nM.

The target of a further test is T2, rhNav1.7α + β1-β2-β3 (rhesus monkey).
T2 construct: also called rhNav1.7-beta1-beta2-beta3; rhesus Nav1.7α
The test can be described thus: binding FACS, CHO FlpIn cells. As to the method: as §1
In the case of B1, the Bmax came out at 74% and the EC50 was determined as 22 nM.
For B2 the same measures were 100% and 9.1 nM.
In the case of B3, the Bmax was found to be 45% and the concentration for a half-maximal effect (EC50) turned out to be 26 nM.
B4: the Bmax was 95% and the half-maximal effective concentration (EC50) is 8.7 nM.
For B5 the same measures were 48% and 34 nM.
For the molecule B6, the Bmax amounted to 51% and the EC50 amounted to 59 nM.
The corresponding values for B7 are 58% and 20 nM.
Take B8: the Bmax is 47% and the half-maximal effective concentration (EC50) was 50 nM.
The corresponding values for B9 are 83% and 27 nM.
Turning to B10, the Bmax came out at 92% and the EC50 was 8.5 nM.
In the case of B11, the Bmax worked out at 81% and the EC50 stood at 15 nM.
For B12 the same measures were 99% and 5.8 nM.
The corresponding values for B13 are 73% and 24 nM.
On to B14, for which the Bmax turned out to be 43% and the EC50 turned out to be 41 nM.
The corresponding values for B15 are 100% and 18 nM.
The corresponding values for B16 are 96% and 12 nM.
For B17, the Bmax came out at 70% and the half-maximal effective concentration (EC50) came to 11 nM.
The corresponding values for B18 are 100% and 6.8 nM.
Regarding B19, the Bmax was 84% and the EC50 came to 13 nM.
For the molecule B20, the binding result was “no binding”.
B21: the Bmax was determined as 79% and the half-maximal effective concentration (EC50) is 9.7 nM.

The next test addresses T3, huNav1.7α + β1-β2-β3 (human, UniProt Q15858 1-1988; A5A6L6 19-218; O60939 30-215; Q2KI11 23-215).
T3 construct: also called huNav1.7-beta1-beta2-beta3; huNav1.7-β1-β2-β3
In words: binding FACS, CHO FlpIn. As to the method:
as §1
With B22, the Bmax was 100% and the EC50 is 5.3 nM.
Regarding B23, the Bmax amounted to 100% and the concentration for a half-maximal effect (EC50) is 5.3 nM.
Take B24: the Bmax amounted to 100% and the EC50 was found to be 10 nM.
With B25, the Bmax was 100% and the EC50 is 3.7 nM.
For B26 the same measures were 100% and 4.1 nM.
For B27 the same measures were 100% and 3.9 nM.
For B28 the same measures were 100% and 3.1 nM.
